Reference: publication PMC8294587, “Intrinsic differences in the mechanisms of Tie2 binding to angiopoietins exploited by directed evolution to create an Ang2-selective ligand trap” (The Journal of Biological Chemistry, 2021)

B1: wild-type Tie2 ectodomain-Fc [human] / Angiopoietin-2 [not stated] (parent complex)
chain 1: AMDLILINSLPLVSDAETSLTCIASGWRPHEPITIGRDFEALMNQHQDPLEVTQDVTREWAKKVVWKREKASKINGAYFCEGRVRGEAIRIRTMKMRQQASFLPATLTMTVDKGDNVNISFKKVLIKEEDAVIYKNGSFIHSVPRHEVPDILEVHLPHAQPQDAGVYSARYIGGNLFTSAFTRLIVRRCEAQKWGPECNHLCTACMNNGVCHEDTGECICPPGFMGRTCEKACELHTFGRTCKERCSGQEGCKSYVFCLPDPYGCSCATGWKGLQCNEACHPGFYGPDCKLRCSCNNGEMCDRFQGCLCSPGWQGLQCEREGIQRMTPKIVDLPDHIEVNSGKFNPICKASGWPLPTNEEMTLVKPDGTVLHPKDFNHTDHFSVAIFTIHRILPPDSGVWVCSVNTVAGMVEKPFNISVK
chain 2: YNNFRKSMDSIGKKQYQVQHGSCSYTFLLPEMDNCRSSSSPYVSNAVQRDAPLEYDDSVQRLQVLENIMENNTQWLMKLENYIQDNMKKEMVEIQQNAVQNQTAVMIEIGTNLLNQTAEQTRKLTDVEAQVLNQTTRLELQLLEHSLSTNKLEKQILDQTSEINKLQDKNSFLEKKVLAMEDKHIIQLQSIKEEKDQLQVLVSKQNSIIEELEKKIVTATVNNSVLQKQQHDLMETVNNLLTMMSTSNSAKDPTVAKEEQISFRDCAEVFKSGHTTNGIYTLTFPNSTEEIKAYCDMEAGGGGWTIIQRREDGSVDFQRTWKEYKVGFGNPSGEYWLGNEFVSQLTNQQRYVLKIHLKDWEGNEAYSLYEHFYLSSEELNYRIHLKGLTGTAGKISSISQPGNDFSTKDGDNDKCICKCSQMLTGGWWFDACGPSNLNGMYYPQRQNTNKFNGIKWYYWKGSGYSLKATTMMIRPADF
B2: wild-type Tie2 ectodomain-Fc [human] / Angiopoietin-1 [not stated] (parent complex)
chain 1: B1 chain 1
chain 2: HIGCSNQRRSPENSGRRYNRIQHGQCAYTFILPEHDGNCRESTTDQYNTNALQRDAPHVEPDFSSQKLQHLEHVMENYTQWLQKLENYIVENMKSEMAQIQQNAVQNHTATMLEIGTSLLSQTAEQTRKLTDVETQVLNQTSRLEIQLLENSLSTYKLEKQLLQQTNEILKIHEKNSLLEHKILEMEGKHKEELDTLKEEKENLQGLVTRQTYIIQELEKQLNRATTNNSVLQKQQLELMDTVHNLVNLCTKEGVLLKGGKREEEKPFRDCADVYQAGFNKSGIYTIYINNMPEPKKVFCNMDVNGGGWTVIQHREDGSLDFQRGWKEYKMGFGNPSGEYWLGNEFIFAITSQRQYMLRIELMDWEGNRAYSQYDRFHIGNEKQNYRLYLKGHTGTAGKQSSLILHGADFSTKDADNDNCMCKCALMLTGGWWFDACGPSNLNGMFYTAGQNHGKLNGIKWHYFKGPSYSLRSTTMMIRPLDF

Variants of: B1
Test: ELISA (named by the earlier reader; legend does not name the assay); mutant read at its highest concentration point, about 300 nM Tie2 ectodomain; parent value is the wild-type curve's highest concentration point, about 50 nM; parent: 1; read off a plot

| Variant | response [AU] |
| --- | --- |
| chain 1 R145A, chain 1 H146A | ~1 |

Variants of: B1
Test: ELISA (named by the earlier reader; legend does not name the assay); mutant read at its highest concentration point, about 300 nM Tie2 ectodomain; parent value is the wild-type curve's highest concentration point, about 50 nM; parent: 0.9; read off a plot

| Variant | response [AU] |
| --- | --- |
| chain 1 R145A, chain 1 H146A, chain 1 E147A | ~0.58 |

Variants of: B2
Test: ELISA (named by the earlier reader; legend does not name the assay); mutant read at its highest concentration point, about 300 nM Tie2 ectodomain; parent value is the wild-type curve's highest concentration point, about 30-50 nM; parent: 1; read off a plot

| Variant | response [AU] |
| --- | --- |
| chain 1 R145A, chain 1 H146A | ~0.88 |

Variants of: B2
Test: ELISA (named by the earlier reader; legend does not name the assay); mutant read at its highest concentration point, about 300 nM Tie2 ectodomain; parent value is the wild-type curve's highest concentration point, about 50-100 nM; parent: …; read off a plot

| Variant | response [AU] |
| --- | --- |
| chain 1 R145A, chain 1 H146A, chain 1 E147A | ~0.09 |
